Assay [1] deals with T1, OB-R (Homo sapiens, UniProt P48357).
T1 construct: After confirming via Western that the primary EEC and ESC and endometrial cell lines utilized herein had OB-R; endogenous in cells; host or cells: primary human EEC and ESC; Ishikawa (ECACC 9832301) and HES cell lines
T1 sequence (P48357 22-1165): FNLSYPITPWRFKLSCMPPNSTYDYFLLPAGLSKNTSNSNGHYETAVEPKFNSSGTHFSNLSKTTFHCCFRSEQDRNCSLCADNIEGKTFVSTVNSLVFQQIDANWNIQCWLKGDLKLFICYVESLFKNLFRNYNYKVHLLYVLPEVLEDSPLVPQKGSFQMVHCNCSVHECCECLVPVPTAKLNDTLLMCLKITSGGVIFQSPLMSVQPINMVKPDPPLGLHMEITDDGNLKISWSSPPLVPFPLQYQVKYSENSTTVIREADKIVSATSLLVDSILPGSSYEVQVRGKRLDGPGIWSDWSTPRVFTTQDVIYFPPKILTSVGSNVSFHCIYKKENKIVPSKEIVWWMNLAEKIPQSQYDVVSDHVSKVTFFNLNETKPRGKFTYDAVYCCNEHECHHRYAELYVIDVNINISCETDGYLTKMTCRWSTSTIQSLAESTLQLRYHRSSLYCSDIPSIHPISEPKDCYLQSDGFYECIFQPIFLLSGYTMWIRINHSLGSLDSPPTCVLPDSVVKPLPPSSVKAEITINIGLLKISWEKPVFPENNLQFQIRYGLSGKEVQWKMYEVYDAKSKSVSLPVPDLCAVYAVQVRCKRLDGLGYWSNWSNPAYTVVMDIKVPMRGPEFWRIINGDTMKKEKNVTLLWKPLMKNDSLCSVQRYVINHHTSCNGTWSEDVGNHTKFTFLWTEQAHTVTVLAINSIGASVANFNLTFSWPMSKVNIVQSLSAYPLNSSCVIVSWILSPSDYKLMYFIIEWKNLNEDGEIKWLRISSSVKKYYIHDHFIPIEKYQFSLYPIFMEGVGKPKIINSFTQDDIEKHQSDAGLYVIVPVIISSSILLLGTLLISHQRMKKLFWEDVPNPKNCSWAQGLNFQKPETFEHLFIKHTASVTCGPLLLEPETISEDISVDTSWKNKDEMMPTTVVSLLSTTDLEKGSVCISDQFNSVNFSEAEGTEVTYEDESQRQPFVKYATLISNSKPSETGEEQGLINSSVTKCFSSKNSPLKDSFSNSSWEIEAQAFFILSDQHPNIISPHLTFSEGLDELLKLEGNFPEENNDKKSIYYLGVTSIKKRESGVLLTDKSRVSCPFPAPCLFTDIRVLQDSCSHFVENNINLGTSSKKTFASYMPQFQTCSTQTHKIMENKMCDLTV
Description: IL-1β and IL-1Ra levels in conditioned medium of human endometrial epithelial cells (ELISA). Format: cell-based. The settings on record: EEC, leptin 10 nM, 24 h; for effect on leptin-induced increase in IL-1Ra levels / effect on leptin-induced increase in IL-1β levels: LPA-2 30 μM. As to the method:
(§1) Primary human endometrial cells (ESC and EEC) were cultured for 5-9 days in DMEM-F12 medium containing 5% fetal bovine serum (FBS), 5 μg/ml insulin, 1% amphopthericin B, 100 μg/ml streptomycin and 100 U/ml penicillin until they were 80% confluent. Two types of endometrial epithelial cell lines, HES (originally derived from a benign proliferative endometrium) and Ishikawa (human endometrial epithelial adenocarcinoma, ECACC 9832301, Wiltshire, England) were cultured under the same conditions described above. The cells were washed twice with 100 mM phosphate saline buffer (PBS), pH 7.2 and cultured for additional 2 days in the same medium but without FBS (basal medium). Cells were washed as described before and cultured in basal medium containing leptin (0, 3, 10 or 62 nM) or IL-1β (0.6, 3 and 10 nM).
(§2) The anti-OB-R antibody (10 and 20 μg/ml) and LPA-2, a specific inhibitor of OB-R (3, 120, 300 nM or 30 μM) were used to assess whether leptin-induced effects were regulated primarily by the OB-R. Non-specific species-matched IgGs to the OB-R antibody and a scrambled version of LPA-2 (LPA-2Sc) served as negative controls (Gonzalez and Leavis, Endocrine 21: 185-195 (2003)). Inhibitors of IL-1R were used (monoclonal antibody anti-IL-1R tl and IL-1Ra) to assess whether leptin activated IL-1 induced signaling pathways or just activated similar components responsible for LIF/LIF-R expression. Treatment with the cytokine, inhibitor or the two combined was implemented for 5, 15, 30 and 60 min, and 24 and 48 h. The cells were prepared for Western blot analysis. The conditioned media was collected, lyophilized and stored at −80° C. until analysis for LIF, IL-1β and IL-1Ra by ELISA could be performed. Duplicate wells were run for each treatment and the experiments repeated at least three times with different cell preparations.
(§3) Conditioned media from cells cultured under the experimental conditions described above were used to quantify the secretion of LIF, IL-1β and IL-1Ra by ELISA (Quantikine®, R&D Systems). The experiments were replicated three times and standards, controls, and samples were assayed in duplicate. Cytokine concentrations as determined by ELISA were within the range of the standard curve and were expressed in pg/ml/mg protein. The intra- and interassay coefficients of variation were between 5-8% and 8.5-10%, respectively. The lowest detectable concentration of each cytokine by ELISA was LIF (9 pg/ml), IL-1 (0.11 pg/ml) and IL-1Ra (15.6 pg/ml). These concentrations are similar to those reported by the manufacturer. LIF-ELISA is reported by the manufacturer to have a sensitivity of less than 8 pg/ml for both natural and recombinant human LIF and 100% specificity (no significant cross-reactivity or interference with a diversity of human and mouse cytokines and growth factors was observed). The performance characteristics for human IL-1β and IL-1Ra ELISAs reported are: 100% specificity, sensitivity 0.1 pg/ml and 14 pg/ml, respectively.
On the technique in general: An ELISA detects its analyte on a solid surface through an enzyme-linked reagent.

The target in assay [2] is T1, OB-R. The assay is described as follows: LIF levels in conditioned medium of human endometrial cells (ELISA). Format: cell-based. The following applies: for effect on leptin-induced LIF levels in conditioned medium: leptin 3 nM plus inhibitor or control. As to the method: as §1, §2, §3

Three substances from patent US8058228B2, “Leptin peptide antagonists” (Boston Biomedical Research Institute, priority 2004, dated 2011) can be followed below.

In the case of “SRNVIQISNDLENLRDLLHVLAFSKS [LPA-2, 26 amino acid peptide, residues 70-95 of helix III of the human leptin molecule; leptin peptide antagonist]”, at OB-R [1], the “effect on leptin-induced increase in IL-1Ra levels” value is listed as “abrogated” and the “effect on leptin-induced increase in IL-1β levels” value was “abrogated”. Besides, the “effect on leptin-induced LIF levels in conditioned medium” value on OB-R [2] (Ishikawa cells) is listed as “reduced LIF levels”.
On to “VAEVLNRSDLIQRISFSLDLNNSKLH [LPA-2Sc, scrambled version of LPA-2, negative control, reference compound]”, for which, in the assay with OB-R [1], the “effect on leptin-induced increase in IL-1Ra levels” value was “not affected” and the “effect on leptin-induced increase in IL-1β levels” value is “not affected”. Further, the “effect on leptin-induced LIF levels in conditioned medium” value with OB-R [2] (Ishikawa cells) was “not different”.
As for “leptin: human recombinant leptin (R&D Systems), OB-R ligand used as stimulus”, in the assay with OB-R [1], the “IL-1Ra levels after leptin” value is given as “elevated levels” and the “IL-1β levels after leptin” value is recorded as “elevated levels”. In addition, the “LIF levels after leptin” value with OB-R [2] (HES cells) was “No response”. Also, the “LIF levels in conditioned medium after leptin” value with OB-R [2] (Ishikawa cells, leptin 3 nM) is given as “increased the levels of LIF”. Also, in the assay with OB-R [2] (primary EEC, 24 h, dose-dependent), the “LIF levels after leptin” value was “increased level of LIF”.
